Data from patent US20210317200A1 (MABPROTEIN, published 2021).
No end group written: not given here.

T1: peptide S43A (alanine variant of …) (human, not fully specified)
T1 construct: Position is counted on IL-18
T1 peptide: YFGKLEAKC

T2: peptide F38A (alanine variant of …) (human, not fully specified)
T2 construct: Position is counted on IL-18
T2 peptide: YAGKLESKC

T3: peptide K44A (alanine variant of …) (human, not fully specified)
T3 construct: Position is counted on IL-18
T3 peptide: YFGKLESAC

T4: peptide G39A (alanine variant of …) (human, not fully specified)
T4 construct: Position is counted on IL-18
T4 peptide: YFAKLESKC

T5: neoepitope peptide (positions 37 to 44, C-terminal Cys) with positions 43 to 44 substituted with alanine (human, not fully specified)
T5 construct: Member of the successive alanine series, derived from the description of the series; Positions are counted on IL-18; also called peptide having the presence of lysine at position 40
T5 peptide: YFGKLEAAC

T6: neoepitope peptide (positions 37 to 44, C-terminal Cys) with positions 42 to 44 substituted with alanine (human, not fully specified)
T6 construct: Member of the successive alanine series, derived from the description of the series; Positions are counted on IL-18; also called peptide having the presence of lysine at position 40
T6 peptide: YFGKLAAAC

T7: neoepitope peptide (positions 37 to 44, C-terminal Cys) with positions 41 to 44 substituted with alanine (human, not fully specified)
T7 construct: Member of the successive alanine series, derived from the description of the series; Positions are counted on IL-18; also called peptide having the presence of lysine at position 40
T7 peptide: YFGKAAAAC

T8: neoepitope peptide IL-18^37-44 with C-terminal cysteine (YFGKLESKC) (human, not fully specified)
T8 construct: also called IL-18^37-44 peptide; wild-type peptide
T8 peptide: YFGKLESKC

T9: peptide E42A (alanine variant of …) (human, not fully specified)
T9 construct: Position is counted on IL-18
T9 peptide: YFGKLASKC

T10: peptide Y37A (alanine variant of …) (human, not fully specified)
T10 construct: Position is counted on IL-18
T10 peptide: AFGKLESKC

T11: neoepitope peptide (positions 37 to 44, C-terminal Cys) with positions 40 to 44 substituted with alanine (human, not fully specified)
T11 peptide: YFGAAAAAC

T12: peptide L41A (alanine variant of …) (human, not fully specified)
T12 construct: Position is counted on IL-18
T12 peptide: YFGKAESKC

T13: activated IL-18 protein (IL-18^37-193) (human, UniProt Q14116 37-193)
T13 sequence (looked up): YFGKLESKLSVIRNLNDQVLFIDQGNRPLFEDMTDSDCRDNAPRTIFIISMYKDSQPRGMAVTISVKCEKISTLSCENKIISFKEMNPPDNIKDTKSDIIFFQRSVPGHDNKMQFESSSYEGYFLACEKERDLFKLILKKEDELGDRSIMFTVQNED


Columns and labels:
[1] = molecular target: T1, peptide S43A (alanine variant of …); test: ELISA on BSA-crosslinked peptide (alanine scanning)
[2] = molecular target: T2, peptide F38A (alanine variant of …); test: as above
[3] = molecular target: T3, peptide K44A (alanine variant of …); test: as above
[4] = molecular target: T1, peptide S43A (alanine variant of …); test: ELISA on BSA-crosslinked peptide, alanine scanning; row YFGKLEAK
[5] = molecular target: T4, peptide G39A (alanine variant of …); test: ELISA on BSA-crosslinked peptide, alanine scanning; row [..]
[6] = molecular target: T2, peptide F38A (alanine variant of …); test: ELISA on BSA-crosslinked peptide, alanine scanning; row YAGKLESK
[7] = molecular target: peptide K40A (alanine variant of …) (human, C-terminal Cys crosslinked to BSA in ELISA; thiol-coupled to sensor chip CM5 in SPR); test: ELISA on BSA-crosslinked peptide, alanine scanning; row YFGALESK
[8] = molecular target: T5, neoepitope peptide (positions 37 to 44, …); test: ELISA on BSA-crosslinked peptide, neoepitope fine analysis; row YFGKLEAA
[9] = molecular target: T3, peptide K44A (alanine variant of …); test: ELISA on BSA-crosslinked peptide, alanine scanning; row YFGKLESA
[10] = molecular target: T5, neoepitope peptide (positions 37 to 44, …); test: ELISA on BSA-crosslinked peptide (neoepitope fine analysis)
[11] = molecular target: T6, neoepitope peptide (positions 37 to 44, …); test: as above
[12] = molecular target: T7, neoepitope peptide (positions 37 to 44, …); test: as above
[13] = molecular target: T8, neoepitope peptide IL-18^37-44 with …; test: ELISA on BSA-crosslinked peptide, alanine scanning; row YFGKLESK (reference set as 100)
[14] = molecular target: T8, neoepitope peptide IL-18^37-44 with …; test: SPR, Biacore X100, peptide thiol-coupled to CM5, antibody 0.4-250 nM, single-cycle, bivalent analysis
[15] = molecular target: T6, neoepitope peptide (positions 37 to 44, …); test: ELISA on BSA-crosslinked peptide, neoepitope fine analysis; row YFGKLAAA
[16] = molecular target: T8, neoepitope peptide IL-18^37-44 with …; test: ELISA on BSA-crosslinked peptide, neoepitope fine analysis; row YFGKLESK (reference set as 100)
[17] = molecular target: T7, neoepitope peptide (positions 37 to 44, …); test: ELISA on BSA-crosslinked peptide, neoepitope fine analysis; row YFGKAAAA
[18] = molecular target: T9, peptide E42A (alanine variant of …); test: ELISA on BSA-crosslinked peptide, alanine scanning; row YFGKLASK
[19] = molecular target: T10, peptide Y37A (alanine variant of …); test: ELISA on BSA-crosslinked peptide, alanine scanning; row AFGKLESK
[20] = molecular target: T11, neoepitope peptide (positions 37 to 44, …); test: ELISA on BSA-crosslinked peptide, neoepitope fine analysis; row YFGAAAAA
[21] = molecular target: T12, peptide L41A (alanine variant of …); test: ELISA on BSA-crosslinked peptide, alanine scanning; row YFGKAESK
[22] = molecular target: T3, peptide K44A (alanine variant of …); test: ELISA on BSA-crosslinked peptide, neoepitope fine analysis; row YFGKLESA
[23] = molecular target: T13, activated IL-18 protein (IL-18^37-193); test: cell-based or functional assay

Row | Binder | percent binding relative to the wild-type peptide [1] [%] | percent binding relative to the wild-type peptide [2] [%] | percent binding relative to the wild-type peptide [3] [%] | ELISA absorbance relative to wild-type peptide (= 100) [4] | ELISA absorbance relative to wild-type peptide (= 100) [5] | ELISA absorbance relative to wild-type peptide (= 100) [6] | ELISA absorbance relative to wild-type peptide (= 100) [7] | ELISA absorbance relative to wild-type peptide (= 100) [8] | ELISA absorbance relative to wild-type peptide (= 100) [9] | reactivity relative to the wild-type peptide [10] | reactivity relative to the wild-type peptide [11] | reactivity relative to the wild-type peptide [12] | ELISA absorbance relative to wild-type peptide (= 100) [13] | ELISA absorbance relative to wild-type peptide (= 100) [15] | ELISA absorbance relative to wild-type peptide (= 100) [16] | ELISA absorbance relative to wild-type peptide (= 100) [17] | ELISA absorbance relative to wild-type peptide (= 100) [18] | ELISA absorbance relative to wild-type peptide (= 100) [19] | ELISA absorbance relative to wild-type peptide (= 100) [20] | ELISA absorbance relative to wild-type peptide (= 100) [21] | further results
1 | monoclonal antibody 9-10.2 (antibody, V domains shown) VH: SLTCSFSGFSLSSSGMGVGWIRQPSGKGLEWLAHIWWDDDKNYNPGLKSRLTISKDTSKNQVFLKIANVDTADAATYYCTRTRTYSNFGGGMAYWGQGTSVTVSS VL: LGDQASISCRSSQSIAHSNGYTYLEWYLQTPGQSPKLLIYKVSNRFSGVPDRFSGSGSGTDFTLKISRVEAEDLGVYYCVQGSHVPLTFGAGTKLELK | ~50 | ~50 | ~50 | 45 | 2.5 | 50 | 2.6 | 27 | 39 | ~0.25 fraction of wild-type peptide | ~0.25 fraction of wild-type peptide | ~0.25 fraction of wild-type peptide | 100 | 13 | 100 | 26 | 20 | 0.3 | 5 | 14 | Kd [14]: 0.19 nM; kon [14]: 210000 M⁻¹ s⁻¹; ELISA absorbance relative to wild-type peptide (= 100) [22]: 44
2 | monoclonal antibody 8-4.1 (antibody, V domains shown) VH: LSITCTVSGFSLTSYGVHWVRQPPGKGLEWLGVIWAGGSTNYNSALMSRLSISKDNSKSQVFLKMNSLQTDDTAMYYCARESSYDAMDYWGQGTSVTVSS VL: DIVITQSPKSMSMSVGERVTLTCKASENVVTYVSWYQQKPEQSPKLMIYGASNRYTGVPDRFTGSGSATDFTLTISSVQAEDLADYHCGQGYSYPYTFGGGTKLEIK | ~50 | ~50 | ~50 | 55 | 3.2 | 44 | 1.8 | 56 | 67 | ~0.25 fraction of wild-type peptide | ~0.25 fraction of wild-type peptide | ~0.25 fraction of wild-type peptide | 100 | 23 | 100 | 27 | 34 | 0.8 | 6 | 33 | IC50 (read off the curve) [23]: ~0.6 µg; ELISA absorbance relative to wild-type peptide (= 100) [22]: 27
